assay: yeast display, Sf9 membrane polyspecificity reagent, FACS + sequencing; frameworks hold sequencing errors
In short: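 A nanobody's polyreactivity label depends on the gate it was sorted from. Yeast display cells were stained with 10% biotinylated, detergent-solubilized Sf9 membrane reagent for 1 hour at 4 °C, enriched on streptavidin microbeads and sorted by FACS. The low and high (top ~1%) gates were set on anti-HA fluorescence for expression and streptavidin fluorescence for reagent binding.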

Sequence	polyreactivity (PSR sort gate)
QVQLVESGGGLVQAGGSLRLSCAASGFTFDRYAMGWYRQAPGKERELVAAISRSGASTYYADSVKGRFTISRDNAKNTVYLQMNSLKPDDTAVYYCAAKQRTKGDYWGQGTQVTVSS	high polyreactivity
QVQLVESGGGLLQAGGSLRLSCAASGSTFRAYTMGGYRPAPGKVREFVASITRSGGSTNYADSVKGRFTISRDNAKNTVYLQMNSLKPEDTAGYYCAAGYWRIHYQHFRSRDYWGQGTQVTVSS	high polyreactivity
QVQLVESGGGLVQAGGSLRLSCAASGRTFYHNAMGWYRPAPGKEWELVASIRWSGGSTYADSVKGRFTISRDNAKNTVYLQMNSLKPEDTAGYYCAKVGKSLYPVDYYSWGQGTQVTVSS	high polyreactivity
QVQLVESGGGLVQAGGSLRLSCAASGRIFDVYAMGWYRQAPGKERELVAAITWSGTSTYYADSVKGRFTISRDNAKNTVYLQMNSLKPEDTAVYYCNALSYGRYLNYRGGMDYWGQGTQVTVSS	high polyreactivity
QVQLVESGGGLVQAGGSLRLSCAASGFTFKYYAMGWYRQAPGQERELVAAISSTGSTYYADSVKGRFTISRDNAKNTVYLQTNSLKPEDTAVYYCNKLFEYWGGDNDYWGRGTQVTVSS	high polyreactivity
QVQLVESGGGLVQAGGSLRLSCAASGRILVLNAMGWYRQAPGKERELVADITSGGSTYYADSVKGRFTISRDNAKNTVYLQMNSLKPEDTAVYYCAADLPYSLDYRSEDDYWGQGTQVTVSS	low polyreactivity
QVQLVESRGGLVQAGGSLRLSCAASGSIFRSNGMGWYRQPPGTERELVAAIRTSGGSTNYADSVKGRFTISRDNAKNTVSLQMNSLKPEDTAVYYCNTRDRGLGMMEYWGQGTQVTVSS	low polyreactivity
QVQLVESGGGLVQAGGSLRLSCAASGNIYNNYDMGWYRPAPGKERDLVARIDSGGSTNYADSVKGRFTISRDNAKNTVYLQMNCLKPEDTAVYYCAADFLSHWLLEMDYWGQGTQVTVSS	low polyreactivity
QVQLVESGGGLVQAGGSLRLSCAASGSTYYRYDMGWYRQAPGKERELCAAINWNGGTTYYADSVKGRFTISRDNAKNNVYLQMNSLKPEDTAVYYCTARSNSYVYPRLYNYWGQGTQVTVSS	high polyreactivity
QVQLVESGGGLVQAGVSLRLSCAASGSTFPVNTMGWYRQAPGKERELVAAISWSGGRTYYADSVKGRFTISRDNAKNNVYLQMNILKPEDTAVYYCAADIGSYYYYTYYYWGQGSQVTVSS	high polyreactivity
QVQLVESGGGLVQAGGSLRLSCAASGRIFTHNAIGWYRQAPGKERELVAGISYGGGSTYYADSVKGRFTISRDNAKITVYLQMNSLKPEDTAVYYCIAYIYDTYYWGQGTQVTVSS	low polyreactivity
QVQLVESGVGLVQAGGSLRLSCAASGRILYPNTMGWYRQAPGKERELVAAISGSGYRTYYADSVKGRFTISRDNAKNTVYLQMNSLKPEDTAVYYCAASGYWPFRSGFGYWGQGTQVTVSS	high polyreactivity
QVQLVESGGGLVQAGGSLRLSCAASGFTFAYYAMGWYRQAPGKERELVAAISYSGGSTYYADSVKGRFTISRDNAKNTVYLQMNSLKPVDTAVYYCAAEAGRRYNWGYDYWGQGTQVTVSS	high polyreactivity
QVHLVESGGGIVQAGGSLRLSCAASGSIFGKNVMGWYRHAPGKERQLVAAITSGASTYYADSVKGRFTISRDNAKNTVYLQMNSLKPEDTPVYYCAARRWRKYYSGYNYWGQGTQVTVSS	high polyreactivity
QVQLVESGGGLVQAGGSLRLICAASGSTFGGNVMGWYRQAPGKERELVAAINWSGGRTYYADSVKGRFTISRDNAKNTVYLQMNSLKPEDTAVYYCAADGGQNGMNYWGQGTQVTVSS	high polyreactivity
QVQLVESGAGLVQAGGSLRLSCAASGYTFYFYAMGWYRQAPGKERELVAAITGGGTTSYADSVKGRFTISRDNAKNTVYLQMNSLKPEDTAVYYCNVLFADKSDYCGQGTQVTVSS	low polyreactivity

Sequence	polyreactivity (PSR sort gate)
QVQLVESGGGLVQAGGTLRLSCAASGYIFFPYAMGWYRQAPGKERELVAAISGSGTSTYYADSVKGRFTISRDNAKNTVYLQMNSLKPEDTAVYYCAAKYGQYDYDYWGQGTQVTVSS	low polyreactivity
HVQLVESGGGLVPAGGSLRLSCAASGSTFIGYARGWYRQAPGKERELVAAISWSGGRTYYADSVKGRFTISRDNAKNTVYLQMNSLKPEDTAVYYCNTVPYRISVQFNYWGQGTQVTVSS	high polyreactivity
QVQLLESGGGLFQAGGSLRLICAASGRIFDENAMGWYRQAPRKDREMVAAISWSGGITYYADSVKGRFTISRDYAKNNVYLQMNSLKPEDTAVYYCAADIFQGYTFYQGYPGGAGYWGQGTQVTVSS	low polyreactivity
QVQLVESGGGLVQAGGSLRLSCAASGGTFSTYAMGWYRQAPGKERELVAAISSTGGSTYYADSVKGRFTISRDNAKNTVYLQMNSLKPEDTAVYYCAAYYSRGWLLYWDEMYYWGQGTQVTVSS	high polyreactivity
QVQLVESGGGLVQAGGSLRLSCAASGRTFDPYAMVWYRQAPGKERELVAAISSGGSTNYADSVKGRFTISRDNAMYTVYLQMNSLKPEDTAVYFCATDSGDGEGDYWGQGTQVTVSS	low polyreactivity
QVQLVESGGGLVQAGGSLRLSCAASGFTFYRYTMGRYRQAPGKERELVAAITWSGGNTYYADSVKGRFTISRDNAKNTVYLQMNSLKPEDNAVYYCAAYKPYSKYNYWGQGTQVTVSS	high polyreactivity
QVQLVESGGGLVQAGGSLRLSCAASGYTFRGNAMGWYRQAPGKERELVAAISIGGTTYYADSVKGRFTISRDNAKNTVYLQMNSLKPVDTAVYYCARRGLAFLFDYWGQGTQVTVSS	low polyreactivity
QVQLVESGGGLVQAGGSLRLSCAASGSTFSRYTMGWYRQAPGKERELVAAISYRGGSTYYADSVKGRFTISRDNAKNTVYLQMNSLKPEDTAVYYCAAEYRVEGSDYDYWGQGSQVTVSS	low polyreactivity
QVQLVESAGGLVQAGGSLRLSCAASGFIFDVYAMGWYRQAPGKERELVAAISVSSTNYADSVKGRFTISRDNAKNTVYLQMNSLKPEDTAVYYCAADTYTYFLASYLYGQYDYWGQGTQVTVSS	low polyreactivity
QVQLVESGGGLVQAGGSLRLSCAASGSTFLNYAMGWYRQAPGKERELVASISYSAGSTYYADSVKGRFTISRDNAKNTVYLQMNSLKPEDTAVYYCAARLARAGYWRRNYYYWGQGTQVTVSS	high polyreactivity
QVQLVESGGGLVQAGGSLRLSCAASGITFDHYTMGWYRHAPGKEREFVADITGSGVRTYYADSVKGRFTISRDNAKNTVYLQMNCLKAEDNAVYYCAKRRTLYYSGKLGYWGQGTQVTVSS	high polyreactivity
QVQLVESGGGLVQAGGSLRLSCAASGSTFGFNVMGWYRQAPGKERELVAVITSDGNTYYADSVKGRFTISRDNAKNTVYLQMNSLKPEDTAVYYCAVSELGTPYGYWGQGTQVTVSS	low polyreactivity
QVQLVESGGGLVQAGGSLRLSCAASGSTFVRYAMGWYRQAPGKERELVAAISGSGGRTYYADSVKGRFTISRDNAKNTVYLQMYSLKPEDTAVYYCATSTAGGRQTVSQYRYYWGQGTQVTVSS	high polyreactivity
QVQLVESGGGLVQAGGSLRLSCAASGLTFGTYAMGWYRQAPGKERELVAAISGTGGTTYYADSVKGRFTISRDNAKNTVYLKMNSLKPEDTAVYYCNKRWRRPYPYDYWGQGTQVTVSS	high polyreactivity
QVQLVESGGGLVQAGGSLRLSCAASGITFDYYAMGWYRQAPGKERELVAAISWGGGSTYYADSVKGRFTISRDNAKNTVYLQMNSLKPEDTAVYYCAADIVSSPSSYVPPGDYWGQGSQVTVSS	low polyreactivity
QVQLVESGGGLVQAGGSLRLSCAASGSIFIPYAMGWYRQAPGKERELVAAIRDSGASTYYADSVKGRFTISRDNAKNTVYLQMNSLKPEDTAVYYCAVRFYDWRYYYWGQGTQVTVSS	high polyreactivity

Reference: the nanobody polyreactivity screen of Harvey et al. (2022)
